Consider one protein from US20160108416.

In one data set the target is atToc159 (At4g02510) (UniProt O81283).
Another data set concerns the target T1, atToc33 (At1g02280) (UniProt O23680).
T1 sequence: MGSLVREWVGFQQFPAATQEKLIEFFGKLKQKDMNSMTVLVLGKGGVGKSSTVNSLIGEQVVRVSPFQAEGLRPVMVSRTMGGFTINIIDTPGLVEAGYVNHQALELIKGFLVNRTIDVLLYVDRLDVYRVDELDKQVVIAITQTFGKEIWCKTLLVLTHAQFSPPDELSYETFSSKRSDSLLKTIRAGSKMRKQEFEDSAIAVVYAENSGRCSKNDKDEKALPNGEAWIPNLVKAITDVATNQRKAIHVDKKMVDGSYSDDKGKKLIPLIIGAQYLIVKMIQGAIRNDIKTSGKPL

The target in a further data set is T2, atToc75-III (At3g46740) (UniProt Q9STE8).
T2 sequence: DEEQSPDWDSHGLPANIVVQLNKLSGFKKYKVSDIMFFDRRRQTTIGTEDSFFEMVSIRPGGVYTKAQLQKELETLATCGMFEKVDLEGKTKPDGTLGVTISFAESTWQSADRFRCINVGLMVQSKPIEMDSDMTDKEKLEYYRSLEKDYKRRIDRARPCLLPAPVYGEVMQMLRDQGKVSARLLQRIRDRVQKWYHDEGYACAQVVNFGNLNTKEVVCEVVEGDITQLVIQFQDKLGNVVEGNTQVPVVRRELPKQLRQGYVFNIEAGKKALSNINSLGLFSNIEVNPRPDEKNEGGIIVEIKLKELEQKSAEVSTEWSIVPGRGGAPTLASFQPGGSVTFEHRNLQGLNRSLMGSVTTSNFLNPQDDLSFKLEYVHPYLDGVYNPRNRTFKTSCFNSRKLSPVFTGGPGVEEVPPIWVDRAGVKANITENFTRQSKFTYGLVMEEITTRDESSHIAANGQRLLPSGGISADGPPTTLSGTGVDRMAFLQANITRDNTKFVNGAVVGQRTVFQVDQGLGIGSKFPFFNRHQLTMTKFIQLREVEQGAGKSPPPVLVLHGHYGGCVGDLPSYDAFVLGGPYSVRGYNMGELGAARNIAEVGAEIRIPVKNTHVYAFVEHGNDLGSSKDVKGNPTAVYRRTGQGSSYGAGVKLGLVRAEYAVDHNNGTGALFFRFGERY

Chain of UniProt O81283 (O81283 whole entry): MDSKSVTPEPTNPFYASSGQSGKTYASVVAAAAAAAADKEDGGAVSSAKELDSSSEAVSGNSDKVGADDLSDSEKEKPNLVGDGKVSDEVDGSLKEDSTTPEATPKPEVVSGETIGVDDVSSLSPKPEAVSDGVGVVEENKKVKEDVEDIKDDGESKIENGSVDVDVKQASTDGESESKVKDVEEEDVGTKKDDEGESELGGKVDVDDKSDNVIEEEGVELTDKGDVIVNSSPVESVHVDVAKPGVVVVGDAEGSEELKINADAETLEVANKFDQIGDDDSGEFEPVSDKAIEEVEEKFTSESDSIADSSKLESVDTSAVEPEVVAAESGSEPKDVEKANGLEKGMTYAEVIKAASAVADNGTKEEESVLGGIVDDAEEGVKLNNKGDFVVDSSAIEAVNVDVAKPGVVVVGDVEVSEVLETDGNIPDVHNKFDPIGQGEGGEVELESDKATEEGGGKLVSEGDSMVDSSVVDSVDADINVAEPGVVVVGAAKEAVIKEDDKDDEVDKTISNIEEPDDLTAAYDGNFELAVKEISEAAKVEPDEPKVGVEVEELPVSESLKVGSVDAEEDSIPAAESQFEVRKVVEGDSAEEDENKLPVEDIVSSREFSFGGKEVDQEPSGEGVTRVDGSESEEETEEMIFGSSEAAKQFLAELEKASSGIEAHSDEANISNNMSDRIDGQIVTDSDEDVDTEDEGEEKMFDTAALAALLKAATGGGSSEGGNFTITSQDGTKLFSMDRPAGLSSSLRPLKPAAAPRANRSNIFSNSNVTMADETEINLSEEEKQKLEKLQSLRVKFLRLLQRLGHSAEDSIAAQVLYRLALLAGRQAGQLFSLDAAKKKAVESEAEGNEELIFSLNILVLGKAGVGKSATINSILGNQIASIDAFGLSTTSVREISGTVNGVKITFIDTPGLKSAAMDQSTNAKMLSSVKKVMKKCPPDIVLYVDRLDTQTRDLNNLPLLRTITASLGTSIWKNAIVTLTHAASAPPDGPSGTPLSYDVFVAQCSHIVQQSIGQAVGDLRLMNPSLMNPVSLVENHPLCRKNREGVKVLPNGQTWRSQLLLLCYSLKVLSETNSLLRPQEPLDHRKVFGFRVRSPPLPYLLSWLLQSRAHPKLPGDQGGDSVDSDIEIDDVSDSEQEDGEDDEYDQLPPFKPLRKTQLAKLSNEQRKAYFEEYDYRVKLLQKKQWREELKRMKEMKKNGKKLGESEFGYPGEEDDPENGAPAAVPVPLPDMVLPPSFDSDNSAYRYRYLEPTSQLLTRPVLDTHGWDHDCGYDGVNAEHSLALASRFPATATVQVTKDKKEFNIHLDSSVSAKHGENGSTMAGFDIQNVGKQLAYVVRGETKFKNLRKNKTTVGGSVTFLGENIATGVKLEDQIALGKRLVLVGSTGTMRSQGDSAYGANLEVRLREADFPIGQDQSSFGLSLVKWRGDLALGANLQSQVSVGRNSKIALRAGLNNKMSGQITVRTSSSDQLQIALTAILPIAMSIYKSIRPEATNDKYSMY

B1: GST-SP1flex (SP1 intermembrane space and cytosolic domains joined by a flexible linker, N-terminal GST tag) (enzyme, part only; not given: N-terminal GST tag)
chain, part: RSSGRDAEVLETVTRVNQLKELAQLLELDSKILPFIVAVSGRVGSETPIKCEHSGIRGVIVEETAEQHFLKHNETGSWVQDSALMLSMSKEVPWFLDDGTSRVHVMGARGATGFALTVGSEVFEESGRSLVRGTLDYLQGLKMLGVKRIERVLPTGIPLTIVGEAVKDDIGEFRIQKPDRGPFYVSSKSLDQLISNLGKWSRLYKIDSVLERRRRRQLQKRVLDAAAKRAELESEGSNGTRESISDSTKKEDAVPDLCVICLEQEYNAVFVPCGHMCCCTACSSHLTSCPLCRRRIDLAVKTYRH
Turning to B1, the “In vitro ubiquitination (high-molecular-weight species of radiolabelled substrate)” value with atToc159 (At4g02510), with atToc33 (At1g02280) and with atToc75-III (At3g46740) was “for each TOC substrate the extent of ubiquitination was enhanced in the presence of SP1” throughout.
